Test [1] addresses Gq proteins.
The test system of test [2] is Gq signaling in HEK 293T cells. The experiment in a line: Light-induced Ca2+ signal (Calbryte 630 AM dye) in opsin-expressing HEK 293T cells. It is filed as cell-based. Conditions: for light-induced increase in Ca2+ signal: blue light 10 s, 100 μW/mm2, 488 nm, no exogenous retinal. How it is done:
(§1) Whether heterologous expression of the Opn5 orthologs from chicken, turtles, humans and mice (which share 80-90% protein sequence identity) have the capacity to mediate blue light-induced Gq signaling activation within HEK 293T cells is tested (FIG. 1a and table 7). Blue light for stimulation and the red intracellular calcium indicator Calbryte™ 630 AM dye are used to monitor the relative Ca^2+ response (FIG. 1b).
b, Pseudocolor images of the Ca2+ signal before and after blue light stimulation (10 s; 100 μW/mm^2; 488 nm) in HEK 293T cells expressing Opn5 from three species (Gallus gallus, Homo sapiens, and Mus musculus). Scale bar, 10 μm.
Characterizing the light-activating properties of cOpn5 heterologously expressed in HEK 293T cells is performed. […] The effects of different light durations on cOpn5-expressing HEK 293T cells are tested. […] Therefore, the light sensitivity of cOpn5 is 3-4 orders of magnitude higher than the reported values of the light-sensitive Gq-coupled GPCRs and even 2-3 orders higher than those of the commonly used optogenetic tool Channelrhodopsin-2 (ChR2)(Lin, 2011; Zhang et al., 2006) (table 8).
The performance of cOpn5 to that of opto-a1AR, a chimera GPCR engineered by mixing rhodopsin with Gq-coupled adrenergic receptor is compared. […] The performance of cOpn5 to that of opn4, a natural opsin which was reported as a tool for Gq signaling activating is also compared. […] Therefore, compared with existing opsin-based tools (opto-a1AR and opn4), cOpn5 is much more light-sensitive (˜3 orders more sensitive), requires much shorter time exposure (10 ms vs. 60 s), and produces stronger responses. […]
Experiments description: the following table 9 is a partial list of cOpn5 orthologs from vertebrata tested in the present invention. Whole genes of all reported opsin5 orthologs from vertebrata (the vertebrates subphylum, including rotundia, cartilaginous fishes, bony fishes, Amphibia, reptila, ornitha and mammals) are synthetized, and expressed in HEK 293T cells. Calcium imaging with or without 470 nm blue light stimulation is performed to test the sensitivity of the opsin 5 orthologs in response to light. The time course of light-induced calcium signal reveal the activated degree of Gq signaling pathway and the sensitivity of these orthologs.

Test [3] deals with Gq signaling in HEK 293T cells. The experiment in a line: IP1 accumulation in Opn5-expressing HEK 293T cells. It is filed as cell-based. The note with it: 100 μW/mm2, 470 nm; for effect on light-evoked IP1 accumulation in cOpn5-expressing cells: YM-254890 treatment, 3 min; for light-induced increase in the level of inositol phosphate (IP1): continuous light 3 min. How it is done:
as §1
f, YM suppressed the IP1 accumulation evoked by continuous light stimulation (3 min; 100 μW/mm^2; 470 nm) in cOpn5-expressing HEK 293T cells (Left). ***P<0.0001, *P=0.0128; Tukey's multiple comparisons test.

For test [4], the target named is Gq proteins. The source holds these as a separate data set.
The next test has as its system Gi signaling. The test is described as follows: cAMP levels in Opn5-expressing HEK 293T cells after photostimulation. The note with it: with retinal (10 μM retinal preincubation). It is filed as cell-based. How it is done: as §1
f, Light has no effect on cAMP levels (10 μM forskolin preincubation) in cOpn5-expressing HEK 293T cells without additional retinal in the medium (left panel).

For test [5], the system named is astrocytes within the mouse S1 cortex. The experiment in a line: In vivo two-photon imaging (920 nm) of ATP release (GRABATP sensor) following astrocyte activation. The note with it: eight hours after intraperitoneal LPS.
Another test concerns in vivo astrocytes. The note with it: cited from earlier work.
The subject of the next test is HEK293-TRPC3 cells. The note with it: cited from earlier work.

Entries after “also recorded” stand apart in the source; their conditions may differ. Numbered stars: 1 amine (or outer) side, 2 acyl side, 3 side chain; on linkers, the order of the positions; unused ones are H or OH. Bridge positions count the residues as written; N and C are the ends. Square brackets hold non-standard residues; d marks the D form. Peptide text beside a SMILES is read from it. X1 = CC(=O)NC(C(=O)OC(C(C)C)C(N[*:1])C(=O)[*:2])C(O)C(C)C; PhLac = O=C(O)[CH](O)Cc1ccccc1; NMeT = CN[CH](C(=O)O)[CH](C)O; NMeA = CN[CH](C)C(=O)O; NMeDha = C=C(NC)C(=O)O

Results on 11 molecules are retold here after patent US20250011391A1, “ULTRA LIGHT-SENSITIVE NEUROPSIN-BASED OPTOGENETIC TOOL FOR ACTIVATING G q-COUPLED SIGNALING AND/OR ACTIVATING CELLS” (GENANS BIOTECHNOLOGY CO., LTD, priority 2021, published 2025).

As for “Chicken Opn5 (opsin 5, neuropsin) (receptor)”, the light-induced Ca^2+ signal (Calbryte 630 AM) in HEK 293T cells with Gq proteins [1] is 3 ΔF/F.

Turning to `C=C1C(=O)NC(C)C(=O)N(C)C(C)C(=O)NC(C(OC(=O)C(NC(C)=O)C(O)C(C)C)C(C)C)C(=O)N(C)C(C(C)OC)C(=O)OC(C)C(NC(C)=O)C(=O)OC(Cc2ccccc2)C(=O)N1C` (centres unmarked) [YM-254890, reference compound] (Ac-T[PhLac][NMeDha]A[NMeA][X1][NMeT](Me); ester 1-C; configuration not given here), in test [2] (YM-254890 10 nM preincubation, cOpn5-expressing HEK 293T cells), the “effect on cOpn5-mediated, light-induced Ca2+ signals” value is recorded as “reversibly abolishes; also recorded: reversibly blocked”. Besides, in test [2] (YM-254890 10 nM, turtle Opn5-expressing HEK 293T cells), the “effect on turtle Opn5-mediated, light-induced Ca2+ signals” value is “reversibly blocked”. Further, the entries for the “effect on light-evoked IP1 accumulation in cOpn5-expressing cells” value in test [3] and in test [3] (listed as YM) were “reduced” and “suppressed”, respectively.

With “human OPN4 (melanopsin) (from UniProt Q9UHM6) (receptor)”, the light-induced Ca^2+ signal in HEK 293T cells with Gq proteins [4] was 1 ΔF/F.

Turning to Turtle Opn5 (opsin 5) (receptor), in the test with Gq proteins [1], the light-induced Ca^2+ signal (Calbryte 630 AM) in HEK 293T cells is 3 ΔF/F.

In the case of “hOPN5: Human (Homo sapiens) Opn5 ortholog, GenBank AY377391.1 [reference compound]”, in test [2], the “light-induced increase in Ca2+ signal” value is “no light effect”. The “light-induced increase in the level of inositol phosphate (IP1)” value in test [3] (listed as human OPN5) is given as “not”; in test [3] (listed as human Opn5) it was “no significant difference”. For the same molecule, the “effect of blue light illumination on cAMP levels” value in the test on Gi signaling is listed as “effectively reduces cAMP levels”.

lipopolysaccharide [LPS]: the “increase of ATP flash events over basal condition” value in test [5] was around 6 fold. Further, the ATP flash frequency in test [5] (mice expressing GRABATP alone) is on record as around 2 flashes per min.

In the case of opto-a1AR (receptor), the light-induced Ca^2+ signal in HEK 293T cells with Gq proteins [4] was 0.5 ΔF/F.

B1: human melanopsin: a natural opsin (melanopsin, Opn4) reported as a tool for Gq signaling activating (protein)
chain: MNPPSGPRVPPSPTQEPSCMATPAPPSWWDSSQSSISSLGRLPSISPTAPGTWAAAWVPLPTVDVPDHAHYTLGTVILLVGLTGMLGNLTVIYTFCRSRSLRTPANMFIINLAVSDFLMSFTQAPVFFTSSLYKQWLFGETGCEFYAFCGALFGISSMITLTAIALDRYLVITRPLATFGVASKRRAAFVLLGVWLYALAWSLPPFFGWSAYVPEGLLTSCSWDYMSFTPAVRAYTMLLCCFVFFLPLLIIIYCYIFIFRAIRETGRALQTFGACKGNGESLWQRQRLQSECKMAKIMLLVILLFVLSWAPYSAVALVAFAGYAHVLTPYMSSVPAVIAKASAIHNPIIYAITHPKYRVAIAQHLPCLGVLLGVSRRHSRPYPSYRSTHRSTLTSHTSNLSWISIRRRQESLGSESEVGWTHMEAAAVWGAAQQANGRSLYGQGLEDLEAKAPPRPQGHEAETPGKTKGLIPSQDPRM
On to B1, for which the “effect of light on Ca2+ signals without ATR” value in test [2] (OPN4-expressing cells, 25 s light, without ATR) is given as “lack of effect”. Moreover, the “Light Sensitivity” value in test [2] (Table 8, HEK 293T) came out at 40 mW/mm^2. In addition, the “Response amplitude: Ca2+ response amplitude” value in test [2] (Table 8, HEK 293T, light as in the row's sensitivity and duration columns) was ~0.646 (ΔF/F). Also, the “Ca2+ signal increase” value in test [2] (opn4-expressing cells, 25 s, 40 mW/mm2, additional retinal) is ~1 ΔF/F. Also, in the test on in vivo astrocytes, the “Light Sensitivity” value is 7 mW/mm^2, the “Response amplitude: Ca2+ event frequence” value was ~2 (ΔF/F) and the “change in Ca2+ amplitude” value is “no significant”.

B2: mouse melanopsin (Opn4): mouse melanopsin, literature optogenetic tool in Table 8 (protein, UniProt Q9QXZ9 1-521, looked up)
Melanopsin: MDSPSGPRVLSSLTQDPSFTTSPALQGIWNGTQNVSVRAQLLSVSPTTSAHQAAAWVPFPTVDVPDHAHYTLGTVILLVGLTGMLGNLTVIYTFCRNRGLRTPANMFIINLAVSDFLMSVTQAPVFFASSLYKKWLFGETGCEFYAFCGAVFGITSMITLTAIAMDRYLVITRPLATIGRGSKRRTALVLLGVWLYALAWSLPPFFGWSAYVPEGLLTSCSWDYMTFTPQVRAYTMLLFCFVFFLPLLIIIFCYIFIFRAIRETGRACEGCGESPLRQRRQWQRLQSEWKMAKVALIVILLFVLSWAPYSTVALVAFAGYSHILTPYMSSVPAVIAKASAIHNPIIYAITHPKYRVAIAQHLPCLGVLLGVSGQRSHPSLSYRSTHRSTLSSQSSDLSWISGRKRQESLGSESEVGWTDTETTAAWGAAQQASGQSFCSQNLEDGELKASSSPQVQRSKTPKVPGPSTCRPMKGQGARPSSLRGDQKGRLAVCTGLSECPHPHTSQFPLAFLEDDVTLRHL
In the case of B2, in the test on HEK293-TRPC3 cells ((500 nm)), the Light Sensitivity was 1e+15 photons s^−1 cm^−2. The “Response amplitude: Ca2+ response ampitude” value in the test with HEK293-TRPC3 cells was ~0.1 (ΔF/F).

B3: tOpn5: Turtle (Chelonia mydas) Opn5 ortholog, SEQ ID NO:2, GenBank XM_007068312.4 (protein)
chain: MASNHSTSPQDDHLPHYLQDEDPFASKLSREADIVAGFYLTIIGVLSTFGNGYVLFMSLKRKKKLKPAEIMTVNLAMCDLGISVVGKPFSIISFFSHRWVFGWLGCRWYGWAGFFFGCGSLITLTAVSLDRYLKICHLTYGTWLKRHHAFICLAIIWAYATFWATVPFAGLGNYAPEPFGTSCTLDWWLAQGSVAGQAFILNILFFCLLLPTAVIVFSYVKIIAKVKSSAKEVAHYDTRIQNSHVLEIKLTKVAMLICAGFLIAWIPYAVVSVWSAFGQPDSVPIQVSVIPTLLAKSAAMYNPIIYQVIDCKFSCCRSLQKKSSLKKSRLYTISGNREPTEMNETHLEL
modifications: Chelonia mydas
B3: the “light-induced increase in Ca2+ signal” value in test [2] was ~3 ΔF/F.

B4: mOpn5: Mouse (Mus musculus) Opn5 ortholog, GenBank NM_181753.4 (protein)
chain: MALNHTALPQDERLPHYLRDEDPFASKLSWEADLVAGFYLTIIGILSTFGNGYVLYMSSRRKKKLRPAEIMTINLAVCDLGISVVGKPFTIISCFCHRWVFGWFGCRWYGWAGFFFGCGSLITMTAVSLDRYLKICYLSYGVWLKRKHAYICLAVIWAYASFWTTMPLVGLGDYAPEPFGTSCTLDWWLAQASGGGQVFILSILFFCLLLPTAVIVFSYAKIIAKVKSSSKEVAHFDSRIHSSHVLEVKLTKVAMLICAGFLIAWIPYAVVSVWSAFGRPDSIPIQLSVVPTLLAKSAAMYNPIIYQVIDYRFACCQAGGLRGTKKKSLEDFRLHTVTAVRKSSAVLEIHPESSSRFTSAHVMDGESHSNDGDCGKK
Take B4: the “light-induced increase in Ca2+ signal” value in test [2] was “no light effect”. The “effect of blue light illumination on cAMP levels” value in the test with Gi signaling is given as “effectively reduces cAMP levels”.
